These are literature values, as cited in article PMC11941745.

The target of data set [1] is flotillin-1 (Homo sapiens) (UniProt O75955). Nature of the data set: SPR. (In SPR one partner is held on a chip, and binding of the other changes the refractive index at the surface.)
The target in data set [2] is flotillin-2 (Homo sapiens) (UniProt Q14254). The data set is described as follows: SPR.
Chain of UniProt Q14254 (Q14254 2-428): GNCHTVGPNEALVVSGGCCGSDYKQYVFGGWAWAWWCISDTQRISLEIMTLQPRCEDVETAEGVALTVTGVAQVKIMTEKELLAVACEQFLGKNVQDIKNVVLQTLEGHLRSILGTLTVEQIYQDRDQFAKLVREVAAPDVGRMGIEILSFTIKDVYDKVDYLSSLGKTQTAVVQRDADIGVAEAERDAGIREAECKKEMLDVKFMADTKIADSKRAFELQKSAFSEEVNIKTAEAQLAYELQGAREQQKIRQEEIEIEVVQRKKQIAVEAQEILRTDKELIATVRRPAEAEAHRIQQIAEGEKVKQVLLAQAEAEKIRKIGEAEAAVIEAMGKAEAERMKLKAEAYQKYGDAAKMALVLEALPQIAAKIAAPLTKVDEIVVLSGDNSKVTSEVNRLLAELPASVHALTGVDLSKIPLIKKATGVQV

Chain of UniProt O75955 (O75955 whole entry): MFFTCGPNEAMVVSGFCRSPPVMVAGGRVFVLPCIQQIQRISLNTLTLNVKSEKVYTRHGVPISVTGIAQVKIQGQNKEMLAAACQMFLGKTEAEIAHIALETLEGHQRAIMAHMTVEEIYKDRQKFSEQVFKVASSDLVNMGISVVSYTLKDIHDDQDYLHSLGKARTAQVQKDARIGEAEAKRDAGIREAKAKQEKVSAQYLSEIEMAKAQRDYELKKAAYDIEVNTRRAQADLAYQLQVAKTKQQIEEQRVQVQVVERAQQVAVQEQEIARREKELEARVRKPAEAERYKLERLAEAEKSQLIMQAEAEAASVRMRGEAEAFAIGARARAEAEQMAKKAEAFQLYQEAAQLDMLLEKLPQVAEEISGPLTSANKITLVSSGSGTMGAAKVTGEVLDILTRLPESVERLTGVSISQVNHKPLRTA

Usually Kd stands for the concentration at which binding is half-saturated. For MPP1 (from UniProt Q00013), the results for the Kd in data set [1] and in data set [2] were 18.1 nM and 24.8 nM, respectively.
